Measurements: US20190358326A1

What was measured:
Test in all cases: virus attachment assay at 4° C. on transfected L929 cells, immunostaining, Mander's co-localization coefficient
[1] = biological target: human P-selectin glycoprotein ligand-1 (hPSGL1) on L929 cells (human) (UniProt Q14242)
[2] = biological target: human scavenger receptor class B member 2 (hSCARB2) on L929 cells (human) (UniProt Q14108)
[3] = biological target: human tryptophanyl-tRNA synthetase (hWARS) on cells (human) (UniProt P23381)
UniProt P23381, sequence (P23381 2-471): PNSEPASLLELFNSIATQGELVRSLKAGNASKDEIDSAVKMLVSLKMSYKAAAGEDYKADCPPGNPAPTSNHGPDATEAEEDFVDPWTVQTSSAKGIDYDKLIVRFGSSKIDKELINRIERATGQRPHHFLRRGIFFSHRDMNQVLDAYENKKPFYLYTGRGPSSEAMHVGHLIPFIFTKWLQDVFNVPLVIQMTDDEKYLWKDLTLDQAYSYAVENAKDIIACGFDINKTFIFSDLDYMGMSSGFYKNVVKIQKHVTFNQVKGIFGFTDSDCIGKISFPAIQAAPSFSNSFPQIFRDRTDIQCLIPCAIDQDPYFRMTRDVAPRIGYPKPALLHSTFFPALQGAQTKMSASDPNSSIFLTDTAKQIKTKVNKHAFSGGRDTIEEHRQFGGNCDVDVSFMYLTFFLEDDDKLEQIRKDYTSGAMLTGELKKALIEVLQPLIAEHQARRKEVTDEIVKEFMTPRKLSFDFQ

UniProt Q14108, sequence (Q14108 whole entry): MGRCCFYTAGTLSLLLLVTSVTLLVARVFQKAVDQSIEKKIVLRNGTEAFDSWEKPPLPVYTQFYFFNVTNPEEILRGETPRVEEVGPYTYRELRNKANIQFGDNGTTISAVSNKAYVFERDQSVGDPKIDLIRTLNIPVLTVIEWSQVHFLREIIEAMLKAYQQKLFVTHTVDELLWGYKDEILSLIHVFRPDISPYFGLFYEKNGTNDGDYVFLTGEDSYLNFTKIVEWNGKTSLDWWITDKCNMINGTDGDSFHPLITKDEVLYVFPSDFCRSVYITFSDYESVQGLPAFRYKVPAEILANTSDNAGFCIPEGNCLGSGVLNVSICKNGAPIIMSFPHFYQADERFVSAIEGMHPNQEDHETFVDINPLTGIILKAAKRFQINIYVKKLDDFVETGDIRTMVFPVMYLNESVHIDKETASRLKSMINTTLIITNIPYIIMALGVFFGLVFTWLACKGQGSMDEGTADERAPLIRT
UniProt Q14242, sequence (Q14242 42-412): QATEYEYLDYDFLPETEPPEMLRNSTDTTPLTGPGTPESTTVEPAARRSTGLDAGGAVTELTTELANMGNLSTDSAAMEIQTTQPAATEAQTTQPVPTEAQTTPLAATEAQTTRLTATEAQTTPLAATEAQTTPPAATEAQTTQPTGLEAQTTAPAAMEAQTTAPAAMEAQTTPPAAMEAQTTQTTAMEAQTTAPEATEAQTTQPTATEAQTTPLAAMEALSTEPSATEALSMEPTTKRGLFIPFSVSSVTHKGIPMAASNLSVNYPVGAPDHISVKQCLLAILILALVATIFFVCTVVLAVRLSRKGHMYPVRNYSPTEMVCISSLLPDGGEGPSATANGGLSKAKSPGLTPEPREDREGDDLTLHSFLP

Substance: enterovirus 71 (EV-A71) virus
- co-localization coefficient (R) [1]: 0.501
- co-localization coefficient (R) [2]: 0.432
- co-localization coefficient (R) [3]: 0.655
